Source: patent publication US11419948B2, “Functionalized microgels with fibrin binding elements” (Georgia Tech Research Corporation, priority 2013, dated 2022)

T1: fibrin clots (Homo sapiens, UniProt P02671+P02675+P02679)
T1 sequence (P02671 36-866 limits assumed): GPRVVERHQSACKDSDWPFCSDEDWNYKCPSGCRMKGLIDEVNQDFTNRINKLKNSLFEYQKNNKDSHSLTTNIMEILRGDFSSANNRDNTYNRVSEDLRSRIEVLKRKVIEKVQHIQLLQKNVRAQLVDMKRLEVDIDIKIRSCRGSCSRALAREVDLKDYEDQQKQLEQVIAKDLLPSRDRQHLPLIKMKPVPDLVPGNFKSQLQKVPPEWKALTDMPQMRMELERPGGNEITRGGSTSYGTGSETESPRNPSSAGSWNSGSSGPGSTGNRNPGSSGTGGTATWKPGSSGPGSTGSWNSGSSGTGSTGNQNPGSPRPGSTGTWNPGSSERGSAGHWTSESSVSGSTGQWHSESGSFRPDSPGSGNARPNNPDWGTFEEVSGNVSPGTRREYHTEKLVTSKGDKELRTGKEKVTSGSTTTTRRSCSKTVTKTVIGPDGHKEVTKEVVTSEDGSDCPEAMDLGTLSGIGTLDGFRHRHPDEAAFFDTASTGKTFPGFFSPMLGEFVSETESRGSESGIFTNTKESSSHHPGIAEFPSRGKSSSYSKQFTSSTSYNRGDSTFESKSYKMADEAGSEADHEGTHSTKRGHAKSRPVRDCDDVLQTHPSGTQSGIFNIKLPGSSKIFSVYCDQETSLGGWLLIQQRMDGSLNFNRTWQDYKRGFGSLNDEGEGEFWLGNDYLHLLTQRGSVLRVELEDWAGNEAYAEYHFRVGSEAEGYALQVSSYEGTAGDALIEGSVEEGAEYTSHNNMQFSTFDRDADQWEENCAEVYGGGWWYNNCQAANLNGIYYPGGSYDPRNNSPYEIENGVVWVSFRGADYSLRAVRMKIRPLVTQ
T1 sequence (P02675 45-491 limits assumed): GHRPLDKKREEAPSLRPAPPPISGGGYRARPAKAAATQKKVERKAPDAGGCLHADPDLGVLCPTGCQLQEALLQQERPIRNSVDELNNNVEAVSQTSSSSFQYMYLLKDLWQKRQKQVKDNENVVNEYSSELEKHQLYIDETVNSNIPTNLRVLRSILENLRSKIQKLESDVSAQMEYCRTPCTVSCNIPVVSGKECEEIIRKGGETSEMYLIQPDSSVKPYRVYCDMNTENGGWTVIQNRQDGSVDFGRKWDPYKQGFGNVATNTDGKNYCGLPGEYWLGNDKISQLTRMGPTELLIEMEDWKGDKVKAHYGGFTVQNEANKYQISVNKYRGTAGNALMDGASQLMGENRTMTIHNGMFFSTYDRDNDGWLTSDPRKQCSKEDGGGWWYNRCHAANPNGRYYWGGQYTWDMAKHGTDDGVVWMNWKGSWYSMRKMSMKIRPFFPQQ
T1 sequence (P02679 27-453): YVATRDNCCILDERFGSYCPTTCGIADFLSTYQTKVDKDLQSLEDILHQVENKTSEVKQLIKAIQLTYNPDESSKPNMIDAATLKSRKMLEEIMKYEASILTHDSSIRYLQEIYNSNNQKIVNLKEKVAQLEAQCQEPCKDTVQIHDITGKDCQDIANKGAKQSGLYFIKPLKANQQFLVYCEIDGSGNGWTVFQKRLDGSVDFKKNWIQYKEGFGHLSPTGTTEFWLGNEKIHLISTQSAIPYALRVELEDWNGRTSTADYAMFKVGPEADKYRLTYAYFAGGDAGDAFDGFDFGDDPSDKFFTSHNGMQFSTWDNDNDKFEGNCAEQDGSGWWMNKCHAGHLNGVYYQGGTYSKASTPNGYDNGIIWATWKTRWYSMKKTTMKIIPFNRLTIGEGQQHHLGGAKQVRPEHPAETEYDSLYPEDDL

T2: fibrin clot polymerization (Homo sapiens, UniProt P02671+P02675+P02679)
T2 sequence (P02671 36-866 limits assumed): T1 sequence (P02671 36-866 limits assumed)
T2 sequence (P02675 45-491 limits assumed): T1 sequence (P02675 45-491 limits assumed)
T2 sequence (P02679 27-453): T1 sequence (P02679 27-453)

B1: PLPs: ultra-low crosslinked pNIPAm-AAc microgels conjugated to fibrin-specific sdFv H6 (conjugate)
VH: QVQLLESGGGLVQPGGSLRLSCAASGDRFTHNDMGWVRQAPGKGLEWVSTIPTTDGSTYYADSVKGRFTISRDNSKSTLYLQMNSLRAEDTAVYYCATGYMWKAPAYVKYWGQGTLVTVSSAAAEQKLISEEDLNSAAHYTDIG
B2: H6: fibrin-specific human sdFv clone from phage biopanning, SEQ ID NO: 1 (protein)
VHH: B1 VH

Assays:
traumatic injury = assay: Hemostasis in rodents following traumatic injury; type: in vivo; details: 100 mg/kg intravenously
fibrin clots = target: T1, fibrin clots; assay: Clot polymerization/degradation assay (thrombin, tPA, plasminogen; turbidity); type: biochemical; details: versus control clots or clots with S11-ULC microgels
Method: Thrombin-initiated fibrin polymerization and degradation assays were used to evaluate clotting rates and persistence in the presence of H6 and S11 (control) ULC microgels at different microgel and fibrinogen concentrations. Competing polymerization and degradation reactions were created with a 96 well plate, and a final volume of 100 μL per well. Two solutions were made, a fibrinogen-microgel solution that was loaded initially, and a thrombin-tPA (tissue Plasminogen Activator)-plasminogen solution that was added in a 1:1 volume ratio. Final concentrations in each well were 2 mg/mL microgel and 2 mg/mL of fibrinogen, 5 mMol Ca^+, 0.25 U/mL of human thrombin (Enzyme Research Laboratories, Inc., South Bend, Ind.), 0.29 μg/mL of tissue Plasminogen Activator(tPA), and 10.8 μg/mL of Plasminogen. The remainder of the volume in the thrombin/tPA/plasminogen solution was made up of 25 mM Hepes, 150 mM NaCl buffer. Turbidity curves were be generated from absorbance measurements (SpectraMax M2 Microplate Reader, Molecular Devices, Sunnyvale, Calif.) at 350 nm, with reads taken every thirty seconds.

[1] = target: T2, fibrin clot polymerization; assay: Turbidity assay of fibrin clot polymerization; type: biochemical
Method: H6 interference with fibrin clot polymerization was determined through turbidity and clottability assays. The turbidity assay involved polymerizing physiological fibrin clots (2 mg/mL) in wells of a 96-well plate while taking absorbance measurements at 350 nm every 30 seconds. An increase in absorbance correlates to an increase in clot “cloudiness” which, in turn, indicates gelation. Turbidity of standard fibrin clots was compared to that of clots exposed to varying molar concentrations ranging from 1:1 to 1:1000 molar ratios of nanobody to fibrinogen.

human plasma components = assay: Qualitative human plasma assay (protein A pull down, polyacrylamide gel); type: binding; details: 30 minutes room temperature
Method: H6 binding was determined through both qualitative and quantitative human plasma assays. The qualitative assay involved incubating either H6, the non-binding negative control, S11, or saline with human plasma at room temperature for 30 minutes. The plasma mixtures were subsequently incubated with protein A beads with the intent to pull down all IgG isotypes (including H6 and S11).
The eluants from the protein A pull down experiment were run on a polyacrylamide gradient gel to visualize any band shifts present in the H6-plasma solution that would indicate a binding interaction not present in the S11-plasma or saline-plasma solutions.

| Molecule | augmentation of hemostasis (traumatic injury) | clot degradation (fibrin clots) | turbidity versus fibrin controls ([1]; all other molar ratios) | turbidity versus fibrin controls ([1]; molar ratio to fibrinogen 1:1, differences not significant) | non-specific binding to human plasma components (band shifts) (human plasma components) |
| --- | --- | --- | --- | --- | --- |
| B1 | effective to augment hemostasis | more resistant to degradation |  |  |  |
| B2 |  |  | indistinguishable from physiological fibrin controls | notable difference in turbidity readings | did not non-specifically bind |
